Assay [1] has as its target T1, NYESOpMHC on T2 cells pulsed with NY-ESO-1-9V (157-165) peptide.
T1 construct: whole, on cells; also called NY-ESO pulsed cells; pulsed T2 cells
As to the kind of experiment: flow cytometry on T2 cells pulsed with NY-ESO-1-9V (157-165) peptide. (In general: A flow cytometer gives signals particle by particle.)

For assay [2], the target named is T2, NYESOpMHC (HLA-A*0201:NYESO1-9V), biotinylated recombinant complex (human).
T2 construct: also called NY-ESO-1 peptide-MHC complex
Description: SPR (ProteOn), biotinylated pMHC on NLC chip, PBS with Tween.

For assay [3], the target named is T1, NYESOpMHC on T2 cells pulsed with ….
The target of assay [4] is T3, NYESOAApMHC (HLA-A*0201:NYESO1-9VAA), biotinylated recombinant complex (human). Description: SPR (ProteOn), biotinylated pMHC on NLC chip.
In assay [5] the target is T4, EBNApMHC (HLA-A*0201:EBNA-1), biotinylated recombinant complex (human; Epstein Barr virus). As to the kind of experiment: SPR (ProteOn), biotinylated pMHC on NLC chip.
The target of assay [6] is T1, NYESOpMHC on T2 cells pulsed with …. This is another data set of the same source.
Assay [7] deals with T2, NYESOpMHC (HLA-A*0201:NYESO1-9V), ….
Assay [8] concerns the target T3, NYESOAApMHC (HLA-A*0201:NYESO1-9VAA), …. Description: SPR (ProteOn), biotinylated NYESOAApMHC on the chip.
The target is the same in assay [9].
Assay [10] concerns the target T4, EBNApMHC (HLA-A*0201:EBNA-1), …. Description: SPR (ProteOn), biotinylated EBNApMHC on the chip.
Assay [11] shares this target.

Where two headings read alike, the source gives them in different places.

B1: BP DARPin® protein #21/#22 (designed binder)
chain: GSDLGKKLLQAARAGQLDEVRELLKAGADVNAKDLIGVTPLHLAAFSGHLEIVEVLLKASADVNAKDVSGRTPLHVAAKHGHLEIVEVLLKAGADVNAKDLIGFTPLHLAAQFGHLEIVEVLLKAGADVNAQDKSGKTPADLAARAGHQDIAEVLQKAAGSPTPTPTTPTPTPTTPTPTPTGSDLGKKLLQAARAGQLDEVRELLKAGADVNAKDAIGFTPLHLAAFSGHLEIVEVLLKAGADVNAKDVAGYTPLHVAALYGHLVIVEVLLKAGADVNAKDKAGETPLHLAAFAGHLEIVEVLLKAGADVNAQDKSGKTPADLAARAGHQDIAEVLQKAA
The term EC50 denotes the concentration at which the effect is half-maximal. A higher EC50 goes with a less potent agent. For B1, in assay [1], the EC50 was 0.0014 µM.

B2: DARPin® protein #22 (designed binder)
chain: MRGSHHHHHHGSDLGKKLLQAARAGQLDEVRELLKAGADVNAKDAIGFTPLHLAAFSGHLEIVEVLLKAGADVNAKDVAGYTPLHVAALYGHLVIVEVLLKAGADVNAKDKAGETPLHLAAFAGHLEIVEVLLKAGADVNAQDKSGKTPADLAARAGHQDIAEVLQKAA
The term Kd denotes the constant that tells how readily two partners part at equilibrium. The term EC50 (read off the curve) denotes the concentration giving half of the maximal effect. On to B2, for which the Kd in [2] stood at 0.0685 nM. The molecule also showed an EC50 in [3] of 0.0037 µM. For the same molecule, the binding result was “no binding” in [4] and “no binding (tested: 3.7 nM to 300 nM, or 250 nM single trace)” in assay [5]. The “EC50 (read off the curve)” value in assay [6] is around 0.003 µM.

B3: DARPin® protein #21 (designed binder)
chain: MRGSHHHHHHGSDLGKKLLQAARAGQLDEVRELLKAGADVNAKDLIGVTPLHLAAFSGHLEIVEVLLKASADVNAKDVSGRTPLHVAAKHGHLEIVEVLLKAGADVNAKDLIGFTPLHLAAQFGHLEIVEVLLKAGADVNAQDKSGKTPADLAARAGHQDIAEVLQKAA
As a reminder, the koff is the rate constant with which the complex falls apart. As usually defined, the kon is the rate constant with which the complex forms. For the molecule B3, in assay [7], the off-rate constant (koff) turned out to be 0.000473 s⁻¹ and the kon is 549000 M⁻¹ s⁻¹. For the same molecule, the binding result in assay [8] is “no binding”. In [9], the “KD (fit header over a trace without response)” value turned out to be 0.846 pM, the “Ka (fit header over a trace without response)” value worked out at 8.23e+06 M⁻¹ s⁻¹ and the “kd (fit header over a trace without response)” value amounted to 6.97e-06 s⁻¹. The Kd in [2] is 0.861 nM. In assay [3], this molecule came in with an EC50 of 0.0045 µM. Also, the binding result in [10] is recorded as “no binding”. Also, in [11], the “KD (fit header over a trace without response)” value was 3050 µM, the “Ka (fit header over a trace without response)” value stood at 2.78e-08 M⁻¹ s⁻¹ and the “kd (fit header over a trace without response)” value came out at 8.5e-11 s⁻¹.

Values taken from patent US20230243070A1 (Molecular Partners, published 2023).
